Reference: article doi:10.1101/2024.03.26.586665 (bioRxiv, 2024)
Blank lines part the entries; values can stand above or below the molecule they belong to.

Columns and labels:
[1] = molecular target: human CaMKIIα W403L hub (human) (UniProt Q9UQM7); assay: mass photometry
mass photometry = molecular target: the molecule itself; assay: mass photometry
SAXS = molecular target: the molecule itself; assay: SAXS

- stoichiometry N [1]: 12
Molecule: human CaMKIIα W403L hub (from UniProt Q9UQM7 345-475) (domain or fragment)

B1: human CaMKIIα WT hub (calcium/calmodulin-dependent protein kinase II subtype alpha, hub domain) (domain or fragment, UniProt Q9UQM7 345-475, looked up)
chain: VRKQEIIKVTEQLIEAISNGDFESYTKMCDPGMTAFEPEALGNLVEGLDFHRFYFENLWSRNSKPVHTTILNPHIHLMGDESACIAYIRITQYLDAGGIPRTAQSEETRVWHRRDGKWQIVHFHRSGAPSV
- stoichiometry N (mass photometry): 24
- stoichiometry N (SAXS): 12
